B1: CDC25A (parent)
chain: KPIVPTDGKRVIVVFHCEFSSERG
B2: KLHDC10 (parent)
chain: CPIIRIPNRFLRGHRPPPARSGHR
B3: PTPRD (parent)
chain: MVHVARLLLLLLTFFLRTDAETPP

Variants of: B1
Test: protein stability index of a GFP-peptide fusion (GPS, HEK-293T) (PSI 1-6); higher = more stable
Conditions: c terminus: a fixed tail appended
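Also: lentivirally expressed fusions sorted by FACS into six bins by GFP to DsRed ratio, PSI derived from sequencing read proportions per bin multiplied by bin number.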

Protein stability index of substitutions, site by site:
P2: H 2.44, I 3.46, R 1.99, Q 2.24, C 3.03, L 1.83, N 3.3, F 2.37, S 1.31, A 3.03, Y 2.75, V 1.82, D 1.61
K1: W 2.24, V 3.69, Q 2.15, D 2.13, T 1.98, F 1.32, A 1.37, C 3.33, Y 1.55, S 2.04, E 1.68, I 2.57, M 1.86, R 2.65, H 2.4, P 2.25, N 1.62
I3: K 2.47, E 2.1, T 2.19, G 1.7, H 1.89, A 3.14, D 1.76, V 2.43, S 1.1, F 2.09, M 2.32, N 2.48, R 2.56, P 2.27

Variants of: B2
Test: as above
Conditions: c terminus: a fixed tail appended

Protein stability index: each site, then its substitutions
R9: Y 1.71, C 2.48
H23: K 1.5
S21: G 2.63, I 1.36
I3: E 3.25
P16: I 1.73
F10: C 2.48
G13: C 1.53
R12: V 2.75
R15: V 1.84

Variants of: B3
Test: as above
Conditions: c terminus: a fixed tail appended

Protein stability index, by site and new letter:
R6: C 2.16, V 2.29, D 3.08, S 1.88, H 3.34, M 1.76, Q 3.99, K 1.67, L 1.9, F 1.74, T 2.3, E 3.41, I 1.13
V4: M 1.46, I 1.41, R 2.34, S 2.46, L 3.81, C 3.07, Y 1.52, T 2.52, N 2.68
L7: Y 2.55, T 3.27, C 2.95, E 1.36, R 2.75, G 4.57, H 2.1, P 1.74, I 3.46, K 3.28, N 3.02, S 2.15
F15: H 4.29, L 2.13, P 2.01, D 2.02, W 2.81, E 2.21, N 3.47, M 2.34, V 2.2, Y 3, I 2.25
H3: S 4.08, D 2.1, C 4.98, M 2.86, L 2.27, T 3.21, K 1.78, P 1.49
L8: D 3.8, Q 2.18, F 2.82, Y 3.46, C 1.89, K 1.98, T 3.02, I 2.58, R 2.45
D19: K 2.29, L 2.71, C 4.03, A 2.91, N 2.96, F 3.69, I 2.41, V 3.32, Q 2.75, S 1.84
A5: R 1.78, Y 2.6, F 3.28, T 2.7, I 1.95, C 2.97, L 3.83, H 4.03, Q 2.34, W 2.51
L10: R 2.14, K 2.83, G 1.33, Y 1.66, F 2.43, Q 1.57, N 2.71, P 3.02, C 2.04, M 2.42, D 1.67, W 1.93, A 2.23, E 2.79, I 4.4, T 1.24
L12: D 1.57, K 2.63, R 2.03, E 2.51, I 2.03, H 1.58, W 2.53, N 2.12, Q 2.2, Y 3.69, C 3.16, V 1.57, G 2.46, F 3, S 2.3, P 2.19
L9: H 1.53, I 2.95, R 1.88, M 1.87, T 3.23, S 2.29, Q 1.8, A 2.04, D 3.06, Y 2.74, N 1.58, K 3.08, F 2.89, W 2.29
E21: V 2.83, C 2.82, M 3.64, Q 4.35, A 3.13, L 2.79, Y 2.55, F 3.22, K 2.66
L11: M 3.56, N 3.99, H 1.97, V 1.84, E 1.62, P 3.92, I 2.14, K 1.69, F 2.56, S 3.85, W 3.02
T18: G 2.47, R 3.3, M 2.62, E 2.04, S 2.48, N 2.38, K 3.74, V 2.63, H 2.3, F 3.28, Y 2.88, C 1.86, D 2.18
F14: H 1.25, S 1.99, A 1.93, K 1.61, M 3.79, R 1.98, L 1.98, I 2.56, N 2.07, G 1.48, Y 1.86, C 1.47, E 1.57, Q 2.15, P 2.45, D 1.79
T22: R 3.51, F 1.95, N 2.05, V 3.03, E 2.08, D 2.81, H 2.36, S 4.07, W 5.11
V2: R 2.51, D 2.92, A 2.85, M 2.69, T 2.06, Q 1.88, W 2.96, C 2.73, P 1.93, S 2.4, N 1.79, G 1.83, F 4.14, H 2.53
P23: T 1.86, M 2.86, F 2.96, A 2.42, R 3.55, N 2.49, S 2.84, E 2.31, Q 3.52, Y 3.76, V 2.46
L16: Q 1.74, Y 1.52, K 1.72, P 2.65, G 2.65, F 1.37, A 1.49, M 4.18, H 2.35, S 2.22, D 3.53, R 1.72, W 1.81, E 3.34, N 2.12, T 2.68
R17: I 2.17, N 3.08, P 1.87, L 2.77, V 2.9, T 2.79, Y 2.3, D 2.22, Q 1.92, F 2.87, E 1.62
M1: L 1.52, E 2.33, T 2.87, I 3.05, Y 3.9, F 1.96, H 1.82, Q 2.33, K 2.28
A20: H 3.11, D 1.29, L 2.99, I 1.81, F 1.84, Q 2.29, G 1.84, E 2.48
T13: Q 1.32, S 2.31, N 2.05, I 4.2, K 2.03, G 2.01, R 2.04, W 3.29, H 1.77, P 2.14, M 3.59
P24: N 1.73, Q 3.53, Y 2.67, T 3.52, A 3.4, D 2.73, C 4.5, I 2.26, S 4.91, V 2.77, L 2.27, M 3.61, F 1.99

Reference: the supplement of paper PMC10567573
